Data published in patent publication US20230212319A1, “NOVEL ANTIGEN BINDING DOMAINS AND SYNTHETIC ANTIGEN RECEPTORS INCORPORATING THE SAME” (University of Southern California, priority 2020, published 2023).

B1: 22168 (protein)
chain: MALPVTALLLPLALLLHAARPEVQLVESGGGLVQPGGSLRLSCEASGFASDDYIIGWFRQAPGKEREGVSCISSKYANTVYTDSVKGRFRLSRGTAKNTVYLQMSALKPEDTAVYYCAMDSRRVTCPEISTMHRNFDSWGQGTLVTVSSGTGGGGSGGGGSGGGGSEFDIQMTQSPSSLSASVGDRVTITCKASDHINNWLAWYQQKPGQAPKLLIYGATTLETGVPSRFSGSGSGTDYTLTISSLQPEDFATYYCQQSWNTPWTFGQGTKLEIKRLEIQNPDPAVYQLRDSKSSDKSVCLFTDFDSQTNVSQSKDSDVYITDKCVLDMRSMDFKSNSAVAWSNKSDFACANAFNNSIIPEDTFFPSSDVPCDVKLVEKSFETDTNLNFQNLSVIGFRILLLKVAGFNLLMTLRLWSSRAKRSGSGVKQTLNFDLLKLAGDVESNPGPTSATMDWIWRILFLVGAATGAHSGPQVQLQESGGGLAQAGGSLRLSCAASGRTFSMGWFRQAPGKEREFVAAITYSGGSPYYASSVRGRFTISRDNAKNTVYLQMNSLKPEDTAVYYCAANPTYGSDWNAENWGQGTQVTVSSGSGGGGSGGGGSGGGGSFEQVQLQQPGAELVKPGASVKMSCKASGYAFSSYWINWMKQKPGQGLEWIGQIYPGDGDTNYNGKFKGRATLTADTSSSTAYMQLSSLTSEDSAVYFCARSITTVVGCAMDYWGQGTSVTVSSTREDLKNVFPPEVAVFEPSKAEIAHTQKATLVCLATGFYPDHVELSWWVNGKEVHSGVCTDPQPLKEQPALNDSRYCLSSRLRVSATFWQNPRNHFRCQVQFYGLSENDEWTQDRAKPVTQIVSAEAWGRADCGITSASYHQGVLSATILYEILLGKATLYAVLVSALVLMAMVKRKDSRGRAKRSGSGATNFSLLKQAGDVEENPGPSRGHMTEYKPTVRLATRDDVPRAVRTLAAAFADYPATRHTVDPDRHIERVTELQELFLTRVGLDIGKVWVADDGAAVAVWTTPESVEAGAVFAEIGPRMAELSGSRLAAQQQMEGLLAPHRPKEPAWFLATVGVSPDHQGKGLGSAVVLPGVEAAERAGVPAFLETSAPRNLPFYERLGFTVTADVEVPEGPRTWCMTRKPGA
B2: 22167 (protein)
chain: MALPVTALLLPLALLLHAARPEVQLQESGGGLVQPGGSLRLSCAASGRTFSSLFMGWVRQAPGKGLELVSAISRYSLYTYYADSVKGRFTISRDNAKNTLYLQMNSLRPEDTAVYYCASKLEYTSNDYDSWGQGTLVTVSSGTGGGGSGGGGSGGGGSEFDIQMTQSPSSLSASVGDRVTITCKASDHINNWLAWYQQKPGQAPKLLIYGATTLETGVPSRFSGSGSGTDYTLTISSLQPEDFATYYCQQSWNTPWTFGQGTKLEIKRLEIQNPDPAVYQLRDSKSSDKSVCLFTDFDSQTNVSQSKDSDVYITDKCVLDMRSMDFKSNSAVAWSNKSDFACANAFNNSIIPEDTFFPSSDVPCDVKLVEKSFETDTNLNFQNLSVIGFRILLLKVAGFNLLMTLRLWSSRAKRSGSGVKQTLNFDLLKLAGDVESNPGPTSATMDWIWRILFLVGAATGAHSGPQVQLQESGGGLAQAGGSLRLSCAASGRTFSMGWFRQAPGKEREFVAAITYSGGSPYYASSVRGRFTISRDNAKNTVYLQMNSLKPEDTAVYYCAANPTYGSDWNAENWGQGTQVTVSSGSGGGGSGGGGSGGGGSFEQVQLQQPGAELVKPGASVKMSCKASGYAFSSYWINWMKQKPGQGLEWIGQIYPGDGDTNYNGKFKGRATLTADTSSSTAYMQLSSLTSEDSAVYFCARSITTVVGCAMDYWGQGTSVTVSSTREDLKNVFPPEVAVFEPSKAEIAHTQKATLVCLATGFYPDHVELSWWVNGKEVHSGVCTDPQPLKEQPALNDSRYCLSSRLRVSATFWQNPRNHFRCQVQFYGLSENDEWTQDRAKPVTQIVSAEAWGRADCGITSASYHQGVLSATILYEILLGKATLYAVLVSALVLMAMVKRKDSRGRAKRSGSGATNFSLLKQAGDVEENPGPSRGHMTEYKPTVRLATRDDVPRAVRTLAAAFADYPATRHTVDPDRHIERVTELQELFLTRVGLDIGKVWVADDGAAVAVWTTPESVEAGAVFAEIGPRMAELSGSRLAAQQQMEGLLAPHRPKEPAWFLATVGVSPDHQGKGLGSAVVLPGVEAAERAGVPAFLETSAPRNLPFYERLGFTVTADVEVPEGPRTWCMTRKPGA
B3: 22121 (protein)
chain: MALPVTALLLPLALLLHAARPDIQMTQSPSSLSASVGDRVTITCKASDHINNWLAWYQQKPGQAPKLLIYGATTLETGVPSRFSGSGSGTDYTLTISSLQPEDFATYYCQQSWNTPWTFGQGTKLEIKRLEGQPKANPTVTLFPPSSEELQANKATLVCLISDFYPGAVTVAWKADGSPVKAGVETTKPSKQSNNKYAASSYLSLTPEQWKSHRSYSCQVTHEGSTVEKTVAPTECSPIKTDVITMDPKDNCSKDANDTLLLQLTNTSAYYMYLLLLLKSVVYFAIITCCLLRRTAFCCNGEKSRAKRSGSGATNFSLLKQAGDVEENPGPTSATMDWIWRILFLVGAATGAHSGPQVQLQESGGGLAQAGGSLRLSCAASGRTFSMGWFRQAPGKEREFVAAITYSGGSPYYASSVRGRFTISRDNAKNTVYLQMNSLKPEDTAVYYCAANPTYGSDWNAENWGQGTQVTVSSGSGGGGSGGGGSGGGGSFEQVQLQQPGAELVKPGASVKMSCKASGYAFSSYWINWMKQKPGQGLEWIGQIYPGDGDTNYNGKFKGRATLTADTSSSTAYMQLSSLTSEDSAVYFCARSITTVVGCAMDYWGQGTSVTVSSTRASTKGPSVFPLAPSSKSTSGGTAALGCLVKDYFPEPVTVSWNSGALTSGVHTFPAVLQSSGLYSLSSVVTVPSSSLGTQTYICNVNHKPSNTKVDKRVEPKSCEVKTDSTDHVKPKETENTKQPSKSCHKPKAIVHTEKVNMMSLTVLGLRMLFAKTVAVNFLLTAKLFFLRAKRSGSGVKQTLNFDLLKLAGDVESNPGPSRGHMTEYKPTVRLATRDDVPRAVRTLAAAFADYPATRHTVDPDRHIERVTELQELFLTRVGLDIGKVWVADDGAAVAVWTTPESVEAGAVFAEIGPRMAELSGSRLAAQQQMEGLLAPHRPKEPAWFLATVGVSPDHQGKGLGSAVVLPGVEAAERAGVPAFLETSAPRNLPFYERLGFTVTADVEVPEGPRTWCMTRKPGA
B4: 22215 (protein)
chain: MALPVTALLLPLALLLHAARPACPYINIYNAEPANPSEKNSPTQYAYGTGAVVRGAEFDIQMTQSPSSLSASVGDRVTITCKASDHINNWLAWYQQKPGQAPKLLIYGATTLETGVPSRFSGSGSGTDYTLTISSLQPEDFATYYCQQSWNTPWTFGQGTKLEIKRLEDLKNVFPPEVAVFEPSKAEIAHTQKATLVCLATGFYPDHVELSWWVNGKEVHSGVCTDPQPLKEQPALNDSRYCLSSRLRVSATFWQNPRNHFRCQVQFYGLSENDEWTQDRAKPVTQIVSAEAWGRADCGITSASYHQGVLSATILYEILLGKATLYAVLVSALVLMAMVKRKDSRGRAKRSGSGATNFSLLKQAGDVEENPGPTSATMDWIWRILFLVGAATGAHSGPQVQLQESGGGLAQAGGSLRLSCAASGRTFSMGWFRQAPGKEREFVAAITYSGGSPYYASSVRGRFTISRDNAKNTVYLQMNSLKPEDTAVYYCAANPTYGSDWNAENWGQGTQVTVSSGSGGGGSGGGGSGGGGSFEQVQLQQPGAELVKPGASVKMSCKASGYAFSSYWINWMKQKPGQGLEWIGQIYPGDGDTNYNGKFKGRATLTADTSSSTAYMQLSSLTSEDSAVYFCARSITTVVGCAMDYWGQGTSVTVSSTRIQNPDPAVYQLRDSKSSDKSVCLFTDFDSQTNVSQSKDSDVYITDKCVLDMRSMDFKSNSAVAWSNKSDFACANAFNNSIIPEDTFFPSSDVPCDVKLVEKSFETDTNLNFQNLSVIGFRILLLKVAGFNLLMTLRLWSSRAKRSGSGVKQTLNFDLLKLAGDVESNPGPSRGHMTEYKPTVRLATRDDVPRAVRTLAAAFADYPATRHTVDPDRHIERVTELQELFLTRVGLDIGKVWVADDGAAVAVWTTPESVEAGAVFAEIGPRMAELSGSRLAAQQQMEGLLAPHRPKEPAWFLATVGVSPDHQGKGLGSAVVLPGVEAAERAGVPAFLETSAPRNLPFYERLGFTVTADVEVPEGPRTWCMTRKPGA

Legend:
RAJI cells = assay: JNG assay, co-culture with RAJI cells; type: cell-based; details: JNG cells expressing construct, co-culture with Raji
Summary of the method: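 Read-out is NFAT-driven GFP measured by flow cytometry after ~4–18 h co-culture of SAR-expressing JNG cells with target cells (E:T about 1:2). SARs were introduced by lentiviral spinfection and selected with puromycin or blasticidin when possible; scores (+/- to 5+ ≈ 5–50% GFP+) are relative to parental JNG cells.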

RAJI-CD19-KO cells = assay: JNG assay, co-culture with RAJI-CD19-KO cells; type: cell-based; details: co-culture with Raji-CD19-KO
Method: Cellular supernatant is collected and assayed for the induction of cytokines (e.g., IL2).
JNG (Jurkat cells expressing EGFP under an NFAT promoter) were infected with lentiviral vectors encoding different single chain and multi-chain SARs by spinfection in the presence of 8 µg/ml of Polybrene® (Sigma, Catalog no. H9268). The Jurkat-NFAT-GFP cells are engineered in such a way that the IL-2 promoter, which carries NFAT binding sites, is cloned upstream of the GFP gene. These cells have been used to study signaling via TCR and CAR. The different SARs were stably expressed in Jurkat NFAT-GFP cells by lentiviral mediated gene transfer, followed by selection with puromycin or blasticidin. No drug selection was used in case the construct lacked an antibiotic resistance gene. The SAR-expressing Jurkat-NFAT-GFP cells were cocultured with the target cells at E:T ratio of approximately 1:2 for approximately 4 hours to 18 hours. When the interaction between SIRs and their target antigen results in activation of the NFAT pathway, GFP expression is induced. […] GFP expression was monitored by FACS analysis. The Jurkat-NFAT-GFP (parental) cells were used as control. The structure of different constructs can be determined based on their names. […] The sequence of the other constructs in the table can be similarly determined from their names and by referring to the different Tables of this disclosure that provide the names and SEQ ID NO of the different modules. Alternatively, the composition and modular architecture of the different SAR constructs can be determined from their sequences by bioinformatics tools, including using nucleic acid and amino acids homology searches. A SAR is considered positive in the assay in case the SAR expressing Jurkat-NFAT-GFP cells show greater % GFP positive cells when cultured with the target cell line as compared to parental Jurkat-NFAT-GFP cells. […] In general, the number +/-, +, 2+, 3+, 4+, 5+ refer to approximately 5%, 10%, 20%, 30%, 40% and 50% GFP positive cells. The % of GFP induction in the above assay is dependent not only the relative strength of the SAR but also, among other factors, on the relative level of expression of the SAR in the JNG cells and the relative level of expression of the target antigen in the target cell line. To control for the difference in gene transduction efficiency of the different SAR constructs, the experiment was conducted with JNG cells transduced with SAR constructs co-expressing a drug resistance gene (e.g., puromycin or PAC) followed by drug selection to generate a stable population of SAR-expressing cells. It is to be noted that the drug resistance gene (e.g., PAC) in the SAR constructs is optional and in vivo studies were conducted with SAR constructs lacking the PAC gene.

Molecule | NFAT-GFP ASSAY: Raji (RAJI cells) | NFAT-GFP ASSAY: Raji-CD19-KO (RAJI-CD19-KO cells)
B1 | 3+ (refer to approximately 5%, 10%, 20%, 30%, 40% and 50% GFP positive cells) | 2+ (refer to approximately 5%, 10%, 20%, 30%, 40% and 50% GFP positive cells)
B2 | + (refer to approximately 5%, 10%, 20%, 30%, 40% and 50% GFP positive cells) | + (refer to approximately 5%, 10%, 20%, 30%, 40% and 50% GFP positive cells)
B3 | 5+ (refer to approximately 5%, 10%, 20%, 30%, 40% and 50% GFP positive cells) | 4+ (refer to approximately 5%, 10%, 20%, 30%, 40% and 50% GFP positive cells)
B4 | Raji (3+), Raji-CD19-KO (3+) (refer to approximately 5%, 10%, 20%, 30%, 40% and 50% GFP positive cells) | Raji (3+), Raji-CD19-KO (3+) (refer to approximately 5%, 10%, 20%, 30%, 40% and 50% GFP positive cells)
